The values that follow come from patent publication US20260109758A1 (BIOSION, published 2026).

In general, EC50 refers to the midpoint of the concentration-response curve. As usually defined, the IC50 is the point on the concentration scale where inhibition reaches its midpoint.

To fix the notation:
B1: BSI-502-007 (bispecific antibody, human IgG1, kappa)
heavy: QVQLVQSGAEVKKPGASVKVSCKASGYTFTTYWMHWVRQAPGQGLEWMGVIDPSDSDTTYNQKFKGRVTMTRDTSTSTVYMELSSLRSEDTAVYYCTRSLDGYYDYWGQGTLVTVSSGGGGSGGGGSGGGGSGGGGSDIQMTQSPSSLSASVGDRVTITCRPTENIYSYLAWYQQKPGKAPKLLIYFARTLAEGVPSRFSGSGSGTDFTLTISSLQPEDFATYYCQHHYGTPWTFGGGTKVEIKGGGGSGGGGSEVQLVESGGGLVQPGGSLRLSCAASGFTFSTYGMSWVRQAPGKGLVWVATINSNGGSTSYPDSVKGRFTISRDNAKNTLYLQMNSLRAEDTAVYYCARFFRFRNAMDYWGQGTLVTVSSASTKGPSVFPLAPSSKSTSGGTAALGCLVKDYFPEPVTVSWNSGALTSGVHTFPAVLQSSGLYSLSSVVTVPSSSLGTQTYICNVNHKPSNTKVDKKVEPKSCDKTHTCPPCPAPEAQGGPSVFLFPPKPKDTLYITREPEVTCVVVDVSHEDPEVKFNWYVDGVEVHNAKTKPREEQYNSTYRVVSVLTVLHQDWLNGKEYKCQVSNKALPAPIEKTISKAKGQPREPQVYTLPPSRDELTKNQVSLTCLVKGFYPSDIAVEWESNGQPENNYKTTPPVLDSDGSFFLYSKLTVDKSRWQQGNVFSCSVMHEALHNHYTQKSLSLSPG
light: DIQMTQSPSSLSASVGDRVTITCRTSENIYSYLAWYQQKPGKAPKFLVYNAKTLAEGVPSRFSGSGSGTDFTLTISSLQPEDFATYYCQHYYGPPTWTFGQGTKVEIKRTVAAPSVFIFPPSDEQLKSGTASVVCLLNNFYPREAKVQWKVDNALQSGNSQESVTEQDSKDSTYSLSSTLTLSKADYEKHKVYACEVTHQGLSSPVTKSFNRGEC
notes: huC2C1A1A1-V15 IgG with an anti-TSLP scFv (VH-VL) at the N-terminus of the heavy chain; AQQ and YTE already stand in the entry
B2: BSI-502-008 (bispecific antibody, human IgG1, kappa)
heavy: DIQMTQSPSSLSASVGDRVTITCRPTENIYSYLAWYQQKPGKAPKLLIYFARTLAEGVPSRFSGSGSGTDFTLTISSLQPEDFATYYCQHHYGTPWTFGGGTKVEIKGGGGSGGGGSGGGGSGGGGSQVQLVQSGAEVKKPGASVKVSCKASGYTFTTYWMHWVRQAPGQGLEWMGVIDPSDSDTTYNQKFKGRVTMTRDTSTSTVYMELSSLRSEDTAVYYCTRSLDGYYDYWGQGTLVTVSSGGGGSGGGGSEVQLVESGGGLVQPGGSLRLSCAASGFTFSTYGMSWVRQAPGKGLVWVATINSNGGSTSYPDSVKGRFTISRDNAKNTLYLQMNSLRAEDTAVYYCARFFRFRNAMDYWGQGTLVTVSSASTKGPSVFPLAPSSKSTSGGTAALGCLVKDYFPEPVTVSWNSGALTSGVHTFPAVLQSSGLYSLSSVVTVPSSSLGTQTYICNVNHKPSNTKVDKKVEPKSCDKTHTCPPCPAPEAQGGPSVFLFPPKPKDTLYITREPEVTCVVVDVSHEDPEVKFNWYVDGVEVHNAKTKPREEQYNSTYRVVSVLTVLHQDWLNGKEYKCQVSNKALPAPIEKTISKAKGQPREPQVYTLPPSRDELTKNQVSLTCLVKGFYPSDIAVEWESNGQPENNYKTTPPVLDSDGSFFLYSKLTVDKSRWQQGNVFSCSVMHEALHNHYTQKSLSLSPG
light: B1 light
notes: huC2C1A1A1-V15 IgG with an anti-TSLP scFv (VL-VH) at the N-terminus of the heavy chain; AQQ and YTE already stand in the entry
B3: BSI-502-005 (bispecific antibody, human IgG1, kappa)
heavy: QVQLVQSGAEVKKPGASVKVSCKASGYTFTTYWMHWVRQAPGQGLEWMGVIDPSDSDTTYNQKFKGRVTMTRDTSTSTVYMELSSLRSEDTAVYYCTRSLDGYYDYWGQGTLVTVSSASTKGPSVFPLAPSSKSTSGGTAALGCLVKDYFPEPVTVSWNSGALTSGVHTFPAVLQSSGLYSLSSVVTVPSSSLGTQTYICNVNHKPSNTKVDKKVEPKSCDKTHTCPPCPAPEAQGGPSVFLFPPKPKDTLYITREPEVTCVVVDVSHEDPEVKFNWYVDGVEVHNAKTKPREEQYNSTYRVVSVLTVLHQDWLNGKEYKCQVSNKALPAPIEKTISKAKGQPREPQVYTLPPSRDELTKNQVSLTCLVKGFYPSDIAVEWESNGQPENNYKTTPPVLDSDGSFFLYSKLTVDKSRWQQGNVFSCSVMHEALHNHYTQKSLSLSPGKGGGGSGGGGSEVQLVESGGGLVQPGGSLRLSCAASGFTFSTYGMSWVRQAPGKGLVWVATINSNGGSTSYPDSVKGRFTISRDNAKNTLYLQMNSLRAEDTAVYYCARFFRFRNAMDYWGQGTLVTVSSGGGGSGGGGSGGGGSGGGGSDIQMTQSPSSLSASVGDRVTITCRTSENIYSYLAWYQQKPGKAPKFLVYNAKTLAEGVPSRFSGSGSGTDFTLTISSLQPEDFATYYCQHYYGPPTWTFGQGTKVEIK
light: DIQMTQSPSSLSASVGDRVTITCRPTENIYSYLAWYQQKPGKAPKLLIYFARTLAEGVPSRFSGSGSGTDFTLTISSLQPEDFATYYCQHHYGTPWTFGGGTKVEIKRTVAAPSVFIFPPSDEQLKSGTASVVCLLNNFYPREAKVQWKVDNALQSGNSQESVTEQDSKDSTYSLSSTLTLSKADYEKHKVYACEVTHQGLSSPVTKSFNRGEC
notes: hu1C5F12E9-V8 IgG with an anti-IL4R scFv (VH-VL) at the C-terminus of the heavy chain; AQQ and YTE already stand in the entry

One test deals with T1, human IL4Rα expressed on 293F-IL4Rα cell surface (human, UniProt P24394 26-825).
T1 construct: whole, on cells; also called human IL4Rα-expressing cells; cell surface IL4R
Put plainly: flow cytometry on 293F-IL4Rα cells, PE anti-human IgG Fc.
On to B1, for which the midpoint of the response, the EC50, lay at 0.188 nM.

Consider B2, for which the midpoint of the response, the EC50, lay at 0.176 nM.

B3: the half-maximal effective concentration (EC50) came to 0.417 nM.

The next test deals with T1, human IL4Rα expressed on 293F-IL4Rα …. Put plainly: cell-based blocking FACS on 293F-IL4Rα cells; blocked ligand biotin human IL4.
As for B1, the IC50 stood at 0.199 nM.

As to B2, half-maximal inhibition (IC50) required 0.169 nM.

With B3, the half-inhibitory concentration (IC50) stood at 0.381 nM.

The target in the next test is T2, recombinant human IL4Rα-his (human, UniProt P24394 26-231, limits assumed, biotin-labeled in the capture ELISA).
T2 construct: In-house made; not shown: His tag at the C-terminus
Put plainly: competitive ELISA: coated human IL4Rα-his, antibody titrated; blocked ligand biotin human IL4. On the procedure:
Briefly, 100 μL human IL4Rα-his proteins (prepared in-house, IL4Rα of SEQ ID NO: 33 with C-terminal His tag) were coated on 96-well micro plates at 2 μg/mL in PBS overnight at 4° C. The next day, plates were washed with wash buffer (PBS+0.05% w/v Tween-20, PBST), and blocked with 5% w/v non-fatty milk in PBST for 2 hours at 37° C. Plates were then washed again using wash buffer. Serially diluted bispecific antibodies or the controls (starting at 100 nM with a 5-fold serial dilution) in 2.5% w/v non-fatty milk in PBST, 100 μL per well, were added to the IL4Rα bound plates, and incubated at 37° C. for 40 minutes. […] Plates were washed again using wash buffer. Thereafter, the plates were added with 100 μL/well of streptavidin conjugated HRP (1:10000 dilution in PBST buffer, Jackson Immunoresearch, Cat #016-030-084) and incubated for 40 minutes at 37° C. Plates were washed again using wash buffer. Finally, TMB was added and the reaction was stopped using 1M H₂SO₄, and the absorbance was read at 450 nm. Data was analyzed using Graphpad Prism and IC₅₀ values were reported.
A general note: In an ELISA, binding on a coated surface is turned into a signal by an enzyme label.
Consider B1, for which the IC50 worked out at 0.212 nM.

For the molecule B2, the concentration for half-maximal inhibition (IC50) is 0.236 nM.

For B3, the concentration for half-maximal inhibition (IC50) was 0.449 nM.
